# Source: publication PMC11210774, “Critical domains for NACC2-NTRK2 fusion protein activation” (PLOS ONE, 2024)
# B1: Nucleus Accumbens-associated protein 2 (NACC2), wild type (natural protein, human, UniProt Q96BF6 1-587, looked up)
# chain: MSQMLHIEIPNFGNTVLGCLNEQRLLGLYCDVSIVVKGQAFKAHRAVLAASSLYFRDLFSGNSKSAFELPGSVPPACFQQILSFCYTGRLTMTASEQLVVMYTAGFLQIQHIVERGTDLMFKVSSPHCDSQTAVIEDAGSEPQSPCNQLQPAAAAAAPYVVSPSVPIPLLTRVKHEAMELPPAGPGLAPKRPLETGPRDGVAVAAGAAVAAGTAPLKLPRVSYYGVPSLATLIPGIQQMPYPQGERTSPGASSLPTTDSPTSYHNEEDEEDDEAYDTMVEEQYGQMYIKASGSYAVQEKPEPVPLESRSCVLIRRDLVALPASLISQIGYRCHPKLYSEGDPGEKLELVAGSGVYITRGQLMNCHLCAGVKHKVLLRRLLATFFDRNTLANSCGTGIRSSTSDPSRKPLDSRVLNAVKLYCQNFAPSFKESEMNVIAADMCTNARRVRKRWLPKIKSMLPEGVEMYRTVMGSAAASVPLDPEFPPAAAQVFEQRIYAERRGDAATIVALRTDAVNVDLSAAANPAFDAGEEVDGAGSVIQEVAAPEPLPADGQSPPQPFEQGGGGPSRPQTPAAAARRPEGTYAGTL
# notes: NACC2, human, wild type; gene bought from Origene and subcloned into pCDNA3 by EcoRI and XbaI; Expressed alone (multimerization assay) or together with the fusion proteins (co-IP); also called wild-type NACC2; native NACC2; source: HEK293T, transfected (pCDNA3, CaCl2), in lysate (E1A buffer)
# How the values were obtained:
# [1] = target: NACC2-NTRK2(ex4:ex13) fusion protein (UniProt Q96BF6); experiment: non-reducing SDS-PAGE and immunoblot of multimers; HEK293T lysates in E1A buffer (250 mM NaCl, 50 mM HEPES, 5 mM EDTA, 0.1% NP-40); non-reducing sample buffer (4% SDS, 10 mM NaPO4 pH 7.0); immunoblot for NACC2 or NTRK2; multimer/monomer band ratio by ImageJ, three replicates
# NACC2(Y86A)-NTRK2 [2] = target: NACC2(Y86A)-NTRK2 (UniProt Q96BF6); experiment: as above
# NACC2(D31N/R45Q)-NTRK2 [3] = target: NACC2(D31N/R45Q)-NTRK2 (UniProt Q96BF6); experiment: as above
# NACC2(Y86A)-NTRK2 [4] = target: NACC2(Y86A)-NTRK2 (UniProt Q96BF6); experiment: co-IP; fusion protein co-expressed with NACC2 in HEK293T; E1A buffer; immunoprecipitation with antibodies against NTRK2 and Protein A-Sepharose at 4°C, immunoblot for NACC2; ratio of NACC2 to the co-immunoprecipitated fusion by ImageJ
# NACC2(D31N/R45Q)-NTRK2 [5] = target: NACC2(D31N/R45Q)-NTRK2 (UniProt Q96BF6); experiment: as above
# [6] = target: NACC2-NTRK2(ex4:ex13) fusion protein (UniProt Q96BF6); experiment: as above
# [7] = target: the molecule itself; experiment: non-reducing SDS-PAGE and immunoblot of multimers; HEK293T lysates in E1A buffer (250 mM NaCl, 50 mM HEPES, 5 mM EDTA, 0.1% NP-40); non-reducing sample buffer (4% SDS, 10 mM NaPO4 pH 7.0); immunoblot for NACC2 or NTRK2; multimer/monomer band ratio by ImageJ, three replicates
molecule,measurement,setting,value
NACC2-NTRK2(ex4:ex13) fusion protein (from UniProt Q96BF6 1-418; Q16620 397-822),ratio of the multimer band to the monomer band,[1],44%
NACC2(Y86A)-NTRK2 (from UniProt Q96BF6 1-418; Q16620 397-822),ratio of the multimer band to the monomer band,NACC2(Y86A)-NTRK2 [2],12%
NACC2(D31N/R45Q)-NTRK2 (from UniProt Q96BF6 1-418; Q16620 397-822),ratio of the multimer band to the monomer band,NACC2(D31N/R45Q)-NTRK2 [3],18%
B1,ratio of NACC2 to the NACC2-NTRK2 fusion with which it was co-immunoprecipitated,NACC2(Y86A)-NTRK2 [4],15%
same,ratio of NACC2 to the NACC2-NTRK2 fusion with which it was co-immunoprecipitated,NACC2(D31N/R45Q)-NTRK2 [5],45%
same,ratio of NACC2 to the NACC2-NTRK2 fusion with which it was co-immunoprecipitated,[6],72%
same,ratio of the multimer band to the monomer band,[7],7%
